Experimental findings from paper PMC12400406 (Organic Letters, 2025) are described below.

For one test, the target named is T1, CmnA-A2-CmnN (Saccharothrix mutabilis, UniProt A6YEH2).
T1 construct: second adenylation domain of CmnA, with MbtH-like protein CmnN, recombinant; with MbtH-like protein CmnN
T1 sequence (A6YEH2 1420-1895 limits assumed): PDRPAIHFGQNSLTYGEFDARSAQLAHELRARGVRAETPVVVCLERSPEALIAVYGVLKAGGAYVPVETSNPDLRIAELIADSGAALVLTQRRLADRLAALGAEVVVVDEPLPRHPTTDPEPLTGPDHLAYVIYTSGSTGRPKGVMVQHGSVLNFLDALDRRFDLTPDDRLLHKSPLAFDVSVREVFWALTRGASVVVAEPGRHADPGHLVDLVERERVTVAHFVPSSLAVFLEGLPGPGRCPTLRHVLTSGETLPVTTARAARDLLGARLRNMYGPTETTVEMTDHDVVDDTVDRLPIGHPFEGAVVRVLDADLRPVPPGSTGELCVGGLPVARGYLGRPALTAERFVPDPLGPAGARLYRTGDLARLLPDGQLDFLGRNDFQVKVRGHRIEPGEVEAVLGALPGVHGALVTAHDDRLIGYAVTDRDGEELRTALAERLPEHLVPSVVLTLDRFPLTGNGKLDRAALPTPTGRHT
T1 sequence (A6YEI5 1-62 partner): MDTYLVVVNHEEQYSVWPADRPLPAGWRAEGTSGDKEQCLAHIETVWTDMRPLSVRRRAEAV
Put plainly: enzyme activity assay (amino acid activation). Format: biochemical.

A further test deals with T2, CmnA-A1–CmnN (Saccharothrix mutabilis, UniProt A6YEH2).
T2 construct: first adenylation domain (module 1) of CmnA, co-expressed with MbtH-like protein CmnN in E. coli; with MbtH-like protein CmnN
T2 sequence (A6YEH2 450-890 limits assumed): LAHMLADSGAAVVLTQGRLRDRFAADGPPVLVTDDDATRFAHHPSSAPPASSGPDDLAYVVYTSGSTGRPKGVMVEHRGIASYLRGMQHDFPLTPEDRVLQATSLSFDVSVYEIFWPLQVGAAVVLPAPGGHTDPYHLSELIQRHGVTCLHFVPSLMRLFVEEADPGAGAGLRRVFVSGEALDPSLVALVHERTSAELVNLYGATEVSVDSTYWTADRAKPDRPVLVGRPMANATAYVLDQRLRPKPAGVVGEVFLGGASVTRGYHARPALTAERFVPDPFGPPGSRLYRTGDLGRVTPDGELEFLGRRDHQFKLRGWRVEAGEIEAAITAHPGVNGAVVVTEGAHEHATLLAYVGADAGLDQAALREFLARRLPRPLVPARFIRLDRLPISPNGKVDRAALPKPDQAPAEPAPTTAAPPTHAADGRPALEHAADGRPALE
T2 sequence (A6YEI5 1-62 partner): T1 sequence (A6YEI5 1-62 partner)
The experiment in a line: in vitro loading onto CmnI-T, intact protein Q-TOF MS; adenylation activity assay. It counts as biochemical. To be noted: ATP, Mg2+; holo-CmnI-T as acceptor.

For another test, the target named is CmnA-A1–CmnN complex (Saccharothrix mutabilis subsp. capreolus, UniProt A6YEI5 1-62, An added initiator Met precedes His364 and is left out. The His-tag on CmnN is thrombin-cleaved. A6YEI5 is taken as CmnN because it is MbtH-like.). Put plainly: BLI; biolayer interferometry; which partner was immobilised and the conditions are in the Supporting Information (not shown). To be noted: both partners purified. Background: In BLI a coated tip is dipped into the sample, and binding shifts an interference pattern.

For a further test, the target named is CmnA-A2-CmnN complex (Saccharothrix mutabilis subsp. capreolus, UniProt A6YEI5 1-62, The printed limits Leu1832-Gly1896 give only 65 residues, which does not fit the stated 55.5 kDa. They are read as a digit transposition of Leu1382-Gly1896 (515 residues). An added initiator Met is le). The test is described as above. To be noted: both partners purified.

With `C[C@H](N)C(=O)O` [L-Ala], on CmnA-A2-CmnN, the “enzyme activity assay (amino acid activation)” value was “CmnA-A2 is capable of activating both L-Ser and L-Ala”.

With `N[C@@H](CO)C(=O)O` [L-Ser], the “enzyme activity assay (amino acid activation)” value on CmnA-A2-CmnN is “CmnA-A2 is capable of activating both L-Ser and L-Ala”.

For `NC[C@H](N)C(=O)O` [L-Dap], on CmnA-A1–CmnN, the “in vitro loading onto CmnI-T, intact protein Q-TOF MS; adenylation activity assa” value was “CmnA-A1 specifically recognizes and activates the nonproteinogenic amino acid L-Dap”.

B1: CmnI (enzyme, Saccharothrix mutabilis subsp. capreolus, UniProt A6YEI0 1-548, looked up)
chain: MTTETPATTGAPATTGAPAPPGRAEIVAAVLPVFAEVLDAPDLTPDSDFFVHGGNSLLAIRVAGRVGRRLGRQVPPAGVLKHPTPDLLAAHLEEEFRGGGAPPIPAPRAGAEADRRPSTAQERVWLLHQLDPDRLDHLVTVALDVAGTVDPAAFTAAWTAVVRRHEALRSRFVKADDDRVAVVVDAEAAPEISVLDLARFPAPVRDRLAEERVRLLRTTPIRLDTGPLARFALLRLADRRYRIELAVHHIVCDGWSLDTLLADFLDAYGRALAGRSPALPPPAVGFADYVAWERDVESSRWPDMAVRLARRFADRPADLPLPVDPVDVPAHEDGDDVTVHAPPGLAAAVERARTSFGHTALTFHLTALGVLLARITGVDDLVVAVPVAGRAQTEHEDLVGLFVNTALARVRLGGTSDVRVLLERNRDEVDELVDCQTFPFDRLVDLLGARRAGTRVPLARVSLAVQNFDDPGTPAPELGFTWQFRDPPERQSKFDLAFTVSDTDGLRLTVTYRPSLFRRATVAAWAGQYLVALEHVVRGVADPEGSAR
notes: CmnI, A domain-less NRPS module 3 (T-C didomain) of capreomycin biosynthesis, Saccharothrix mutabilis subsp. capreolus; calculated molecular weight of the apo-form construct 61 484.72 Da; also called A domain-less NRPS module CmnI; source: purified
By Kd is commonly meant a measure of binding affinity in units of concentration. Lower therefore signals higher affinity. By koff is commonly meant the rate constant with which the complex falls apart. As usually defined, the kon is the second-order rate constant of association. Read a high kon as fast association. Take B1: in the test with CmnA-A1–CmnN complex, the Kd was 1.85 µM, the koff amounted to 0.000477 s⁻¹ and the on-rate constant (kon) came to 258 M⁻¹ s⁻¹. In addition, in the test with CmnA-A2-CmnN complex, the affinity, expressed as Kd, was 4.93 µM; the koff amounted to 0.000728 s⁻¹; the kon stood at 148 M⁻¹ s⁻¹.
